Data from paper doi:10.1101/2025.10.14.682297 (bioRxiv, 2025).

Target: the molecule itself
Assay: cryo-EM structure

B1: human ZNFX1 (NFX1-type zinc finger-containing 1), full-length, 2xStrep-tagged, wild type (enzyme, UniProt Q9P2E3 1-1918, looked up)
chain: MEERRPHLDARPRNSHTNHRGPVDGELPPRARNQANNPPANALRGGASHPGRHPRANNHPAAYWQREERFRAMGRNPHQGRRNQEGHASDEARDQRHDQENDTRWRNGNQDCRNRRPPWSNDNFQQWRTPHQKPTEQPQQAKKLGYKFLESLLQKDPSEVVITLATSLGLKELLSHSSMKSNFLELICQVLRKACSSKMDRQSVLHVLGILKNSKFLKVCLPAYVVGMITEPIPDIRNQYPEHISNIISLLQDLVSVFPASSVQETSMLVSLLPTSLNALRASGVDIEEETEKNLEKVQTIIEHLQEKRREGTLRVDTYTLVQPEAEDHVESYRTMPIYPTYNEVHLDERPFLRPNIISGKYDSTAIYLDTHFRLLREDFVRPLREGILELLQSFEDQGLRKRKFDDIRIYFDTRIITPMCSSSGIVYKVQFDTKPLKFVRWQNSKRLLYGSLVCMSKDNFETFLFATVSNREQEDLCRGIVQLCFNEQSQQLLAEVQPSDSFLMVETTAYFEAYRHVLEGLQEVQEEDVPFQRNIVECNSHVKEPRYLLMGGRYDFTPLIENPSATGEFLRNVEGLRHPRINVLDPGQWPSKEALKLDDSQMEALQFALTRELAIIQGPPGTGKTYVGLKIVQALLTNESVWQISLQKFPILVVCYTNHALDQFLEGIYNCQKTSIVRVGGRSNSEILKQFTLRELRNKREFRRNLPMHLRRAYMSIMTQMKESEQELHEGAKTLECTMRGVLREQYLQKYISPQHWESLMNGPVQDSEWICFQHWKHSMMLEWLGLGVGSFTQSVSPAGPENTAQAEGDEEEEGEEESSLIEIAEEADLIQADRVIEEEEVVRPQRRKKEESGADQELAKMLLAMRLDHCGTGTAAGQEQATGEWQTQRNQKKKMKKRVKDELRKLNTMTAAEANEIEDVWQLDLSSRWQLYRLWLQLYQADTRRKILSYERQYRTSAERMAELRLQEDLHILKDAQVVGMTTTGAAKYRQILQKVEPRIVIVEEAAEVLEAHTIATLSKACQHLILIGDHQQLRPSANVYDLAKNFNLEVSLFERLVKVNIPFVRLNYQHRMCPEIARLLTPHIYQDLENHPSVLKYEKIKGVSSNLFFVEHNFPEQEIQEGKSHQNQHEAHFVVELCKYFLCQEYLPSQITILTTYTGQLFCLRKLMPAKTFAGVRVHVVDKYQGEENDIILLSLVRSNQEGKVGFLQISNRICVALSRAKKGMYCIGNMQMLAKVPLWSKIIHTLRENNQIGPMLRLCCQNHPETHTLVSKASDFQKVPEGGCSLPCEFRLGCGHVCTRACHPYDSSHKEFQCMKPCQKVICQEGHRCPLVCFQECQPCQVKVPKTIPRCGHEQMVPCSVPESDFCCQEPCSKSLRCGHRCSHPCGEDCVQLCSEMVTIKLKCGHSQPVKCGHVEGLLYGGLLVKCTTKCGTILDCGHPCPGSCHSCFEGRFHERCQQPCKRLLICSHKCQEPCIGECPPCQRTCQNRCVHSQCKKKCGELCSPCVEPCVWRCQHYQCTKLCSEPCNRPPCYVPCTKLLVCGHPCIGLCGEPCPKKCRICHMDEVTQIFFGFEDEPDARFVQLEDCSHIFEVQALDRYMNEQKDDEVAIRLKVCPICQVPIRKNLRYGTSIKQRLEEIEIIKEKIQGSAGEIATSQERLKALLERKSLLHQLLPEDFLMLKEKLAQKNLSVKDLGLVENYISFYDHLASLWDSLKKMHVLEEKRVRTRLEQVHEWLAKKRLSFTSQELSDLRSEIQRLTYLVNLLTRYKIAEKKVKDSIAVEVYSVQNILEKTCKFTQEDEQLVQEKMEALKATLPCSGLGISEEERVQIVSAIGYPRGHWFKCRNGHIYVIGDCGGAMERGTCPDCKEVIGGTNHTLERSNQLASEMDGAQHAAWSDTANNLMNFEEIQGMM
  stoichiometry N: 2
